Tests used:
[1] = molecular target: native murine IL-1 receptor of EL-4 6.1 C10 cells (murine)
[2] = molecular target: T1, recombinant human IL-1α (polypeptide composed of the C-terminal 157 residues of IL-1α, Mr 17,500 form) (human, UniProt P01583, 125I label (chloramine-T method, ca 1 atom of iodine per IL-1α molecule) where used as tracer; fluorescein isothiocyanate conjugate in flow cytometry; unlabeled as competitor; coupled to Sepharose 4B …); test: direct binding of 125I-IL-1α to COS cells transfected with clone 78, Scatchard analysis
T1 sequence: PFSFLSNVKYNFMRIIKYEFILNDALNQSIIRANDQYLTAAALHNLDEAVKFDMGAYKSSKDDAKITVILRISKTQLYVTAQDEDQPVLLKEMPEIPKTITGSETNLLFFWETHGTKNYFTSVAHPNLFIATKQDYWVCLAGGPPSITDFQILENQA

[3] = molecular target: T1, recombinant human IL-1α (polypeptide …); test: receptor in Triton X-100 solution (diluted extract) inhibiting 125I-IL-1α binding to extract on nitrocellulose; competitive inhibition model
[4] = molecular target: T1, recombinant human IL-1α (polypeptide …); test: direct binding of 125I-IL-1α to EL-4 6.1 C10 cells, Scatchard analysis

## recombinant human IL-1α (polypeptide composed of the C-terminal 157 residues of IL-1α, Mr 17,500 form) (from UniProt P01583) (ligand)
[1]
  IL-2 production from EL-4 6.1 C10 cells: 100%

B1: recombinant murine IL-1 receptor (clone 78 in pDC201) expressed on COS cells (receptor)
chain: LEIDVCTEYPNQIVLFLSVNEIDIRKCPLTPNKMHGDTIIWYKNDSKTPISADRDSRIHQQNEHLWFVPAKVEDSGYYYCIVRNSTYCLKTKVTVTVLENDPGLCYSTQATFPQRLHIAGDGSLVCPYVSYFKDENNELPEVQWYKNCKPLLLDNVSFFGVKDKLLVRNVAEEHRGDYICRMSYTFRGKQYPVTRVIQFITIDENKRDRPVILSPRNETIEADPGSMIQLICNVTGQFSDLVYWKWNGSEIEWNDPFLAEDYQFVEHPSTKRKYTLITTLNISEVKSQFYRYPFICVVKNTNIFESAHVQLIYPVPDFKNYLIGGFIILTATIVCCVCIYKVFKVDIVLWYRDSCSGFLPSKASDGKTYDAYILYPKTLGEGSFSDLDTFVFKLLPEVLEGQFGYKLFIYGRDDYVGEDTIEVTNENVKKSRRLIIILVRDMGGFSWLGQSSEEQIAIYNALIQEGIKIVLLELEKIQDYEKMPDSIQFIKQKHGVICWSGDFQERPQSAKTRFWKNLRYQMPAQRRSPLSKHRLLTLDPVRDTKEKLPAATHLPLG
[2]
  Ka: 3e+09 M⁻¹

B2: native murine IL-1 receptor of EL-4 6.1 C10 cells (receptor)
chain: LEIDVCTEYPNQIVLFLSVNEIDIRKCPLTPNKMHGDTIIWYKNDSKTPISADRDSRIHQQNEHLWFVPAKVEDSGYYYCIVRNSTYCLKTKVTVTVLENDPGLCYSTQATFPQRLHIAGDGSLVCPYVSYFKDENNELPEVQWYKNCKPLLLDNVSFFGVKDKLLVRNVAEEHRGDYICRMSYTFRGKQYPVTRVIQFITIDENKRDRPVILSPRNETIEADPGSMIQLICNVTGQFSDLVYWKWNGSEIEWNDPFLAEDYQFVEHPSTKRKYTLITTLNISEVKSQFYRYPFICVVKNTNIFESAHVQLIYPVPDFKNYLIGGFIILTATIVCCVCIYKVFKVDIVLWYRDSCSGFLPSKASDGKTYDAYILYPKTLGEGSFSDLDTFVFKLLPEVLEGQFGYKLFIYGRDDYVGEDTIEVTNENVKKSRRLIIILVRDMGGFSWLGQSSEEQIAIYNALIQEGIKIVLLELEKIQDYEKMPDSIQFIKQKHGVICWSGDFQERPQSAKTRFWKNLRYQMPAQRRSPLSKHRLLTLDPVRDTKEKLPAATHLPLG
modifications: glycoprotein (N-linked carbohydrate), Mr 82,000
[3]
  Ka: 4.5e+09 M⁻¹
[4]
  Ka: 4.3e+09 M⁻¹
